Legend:
[1] = target: T1, human PD-1 (human, UniProt Q15116 25-167, limits assumed); assay: Biacore and cell-based assays, calibrated by wildtype nivolumab binding affinity
T1 construct: also called hPD-1

[2] = target: human PD-1 on cells (HEK-PD-1 reporter cells; activated PBMC) (human, UniProt Q15116 25-288); assay: cell-based or functional assay
[3] = target: human IL-12 receptor complex (IL-12Rβ1 and IL-12Rβ2) (human, UniProt P42701 24-662; Q99665 24-862); assay: cell-based or functional assay
[4] = target: T1, human PD-1; assay: same value as Table 11 (measured on the antibody without IL-12)

Sequence of human IL-12 receptor complex (IL-12Rβ1 and IL-12Rβ2) (Q99665 24-862, chain 2 of 2, other chains not shown): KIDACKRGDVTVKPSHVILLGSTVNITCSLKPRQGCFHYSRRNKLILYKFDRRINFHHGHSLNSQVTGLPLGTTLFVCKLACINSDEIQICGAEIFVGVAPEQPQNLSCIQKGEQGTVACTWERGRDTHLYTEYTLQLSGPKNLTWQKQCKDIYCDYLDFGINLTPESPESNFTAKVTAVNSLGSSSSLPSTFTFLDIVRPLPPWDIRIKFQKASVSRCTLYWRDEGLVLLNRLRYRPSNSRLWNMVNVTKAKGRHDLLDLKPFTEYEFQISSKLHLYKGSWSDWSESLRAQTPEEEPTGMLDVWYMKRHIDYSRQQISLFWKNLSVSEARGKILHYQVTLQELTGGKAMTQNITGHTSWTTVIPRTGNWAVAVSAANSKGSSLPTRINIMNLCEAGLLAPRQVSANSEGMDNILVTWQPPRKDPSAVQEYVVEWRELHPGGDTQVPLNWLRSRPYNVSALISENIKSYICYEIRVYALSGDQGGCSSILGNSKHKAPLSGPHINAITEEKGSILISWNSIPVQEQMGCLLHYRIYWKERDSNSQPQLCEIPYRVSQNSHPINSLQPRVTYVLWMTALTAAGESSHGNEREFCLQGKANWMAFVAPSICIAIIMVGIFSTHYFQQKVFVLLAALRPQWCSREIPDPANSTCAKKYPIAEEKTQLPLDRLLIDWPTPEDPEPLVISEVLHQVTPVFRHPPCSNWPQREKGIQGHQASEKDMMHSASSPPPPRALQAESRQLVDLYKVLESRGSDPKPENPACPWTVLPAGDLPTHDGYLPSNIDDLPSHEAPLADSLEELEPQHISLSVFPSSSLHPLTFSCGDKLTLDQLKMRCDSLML
T1 sequence (Q15116 25-167 limits assumed): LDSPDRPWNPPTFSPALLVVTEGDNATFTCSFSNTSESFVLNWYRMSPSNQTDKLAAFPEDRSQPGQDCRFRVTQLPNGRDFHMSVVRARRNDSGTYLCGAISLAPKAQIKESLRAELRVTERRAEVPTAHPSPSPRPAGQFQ
Sequence of human PD-1 on cells (HEK-PD-1 reporter cells; activated PBMC) (Q15116 25-288): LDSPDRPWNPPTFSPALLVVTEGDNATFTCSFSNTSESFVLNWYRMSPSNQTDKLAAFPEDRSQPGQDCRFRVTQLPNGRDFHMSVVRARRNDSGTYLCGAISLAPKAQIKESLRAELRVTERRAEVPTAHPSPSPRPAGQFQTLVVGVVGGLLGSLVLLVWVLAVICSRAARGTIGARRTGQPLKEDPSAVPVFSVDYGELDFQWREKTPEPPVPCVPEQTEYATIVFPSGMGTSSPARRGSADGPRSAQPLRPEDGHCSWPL

| Kd [1] [nM] | IFN-γ release, activated PBMC [2] [ng/mL] | IL-12 signal transduction, HEK-IL-12-PD-1 (high) [2] [%] | IL-12 signal transduction, HEK-IL-12-PD-1 (low) [2] [%] | IL-12 signal transduction, HEK IL-12 [3] [%] | Kd [4] [nM] | Binder |
| --- | --- | --- | --- | --- | --- | --- |
| 2300 |  |  |  |  |  | anti-PD-1 antibody HC-CDR3(N99G) (antibody, V domains shown, constant parts as m82) VH: QVQLVESGGGVVQPGRSLRLDCKASGITFSNSGMHWVRQAPGKGLEWVAVIWYDGSKRYYADSVKGRFTISRDNSKNTLFLQMNSLRAEDTAVYYCATGDDYWGQGTLVTVSS VL: EIVLTQSPATLSLSPGERATLSCRASQSVSSYLAWYQQKPGQAPRLLIYDASNRATGIPARFSGSGSGTDFTLTISSLEPEDFAVYYCQQSSNWPRTFGQGTKVEIKR |
|  | 820 | 38 | 33 | < 0.2 | 25 | IL-12(E59A/F60A)/anti-PD-1(D100N) (antibody) light: not shown heavy: QVQLVESGGGVVQPGRSLRLDCKASGITFSNSGMHWVRQAPGKGLEWVAVIWYDGSKRYYADSVKGRFTISRDNSKNTLFLQMNSLRAEDTAVYYCATNNDYWGQGTLVTVSSASTKGPSVFPLAPSSKSTSGGTAALGCLVKDYFPEPVTVSWNSGALTSGVHTFPAVLQSSGLYSLSSVVTVPSSSLGTQTYICNVNHKPSNTKVDKKVEPKSCDKPGSGIWELKKDVYVVELDWYPDAPGEMVVLTCDTPEEDGITWTLDQSSEVLGSGKTLTIQVKAAGDAGQYTCHKGGEVLSHSLLLLHKKEDGIWSTDILKDQKEPKNKTFLRCEAKNYSGRFTCWWLTTISTDLTFSVKSSRGSSDPQGVTCGAATLSAERVRGDNKEYEYSVECQEDSACPAAEESLPIEVMVDAVHKLKYENYTSSFFIRDIIKPDPPKNLQLKPLKNSRQVEVSWEYPDTWSTPHSYFSLTFCVQVQGKSKREKKDRVFTDKTSATVICRKNASISVRAQDRYYSSSWSEWASVPCSGGGGSGGGGSGGGGSGGGGSGRNLPVATPDPGMFPCLHHSQNLLRAVSNMLQKARQTLEFYPCTSEEIDHEDITKDKTSTVEACLPLELTKNESCLNSRETSFITNGSCLASRKTSFMMALCLSSIYEDLKMYQVEFKTMNAKLLMDPKRQIFLDQNMLAVIDELMQALNFNSETVPQKSSLEEPDFYKTKIKLCILLHAFRIRAVTIDRVMSYLNASDKTHTCPPCPAPEDEGGPSVFLFPPKPKDTLMISRTPEVTCVVVDVSHEDPEVKFNWYVDGVEVHNAKTKPREEQYNSTYRVVSVLTVLHQDWLNGKEYKCKVSNKALPAPIEKTISKAKGQPREPQVYVYPPSREEMTKNQVSLTCLVKGFYPSDIAVEWESNGQPENNYKTTPPVLDEDGSFALVSKLTVDKSRWQQGNVFSCSVMHEALHNHYTQKSLSLSPGK heavy (part 1 of 2): QVQLVESGGGVVQPGRSLRLDCKASGITFSNSGMHWVRQAPGKGLEWVAVIWYDGSKRYYADSVKGRFTISRDNSKNTLFLQMNSLRAEDTAVYYCATNNDYWGQGTLVTVSSAS heavy (part 2 of 2): EPKSCDKTHTCPPCPAPEKKGGPSVFLFPPKPKDTLMISRTPEVTCVVVDVSHEDPEVKFNWYVDGVEVHNAKTKPREEQYNSTYRVVSVLTVLHQDWLNGKEYKCKVSNKALPAPIEKTISKAKGQPREPQVYVLPPSREEMTKNQVSLLCLVKGFYPSDIAVEWESNGQPENRYMTWPPVLDSDGSFFLYSKLTVDKSRWQQGNVFSCSVMHEALHNHYTQKSLSLSPGK |
|  | 69 | 10 | 3 | < 0.2 | 910 | IL-12(E59A/F60A)/anti-PD-1(D100R) (antibody) light: not shown heavy: QVQLVESGGGVVQPGRSLRLDCKASGITFSNSGMHWVRQAPGKGLEWVAVIWYDGSKRYYADSVKGRFTISRDNSKNTLFLQMNSLRAEDTAVYYCATNRDYWGQGTLVTVSSASTKGPSVFPLAPSSKSTSGGTAALGCLVKDYFPEPVTVSWNSGALTSGVHTFPAVLQSSGLYSLSSVVTVPSSSLGTQTYICNVNHKPSNTKVDKKVEPKSCDKPGSGIWELKKDVYVVELDWYPDAPGEMVVLTCDTPEEDGITWTLDQSSEVLGSGKTLTIQVKAAGDAGQYTCHKGGEVLSHSLLLLHKKEDGIWSTDILKDQKEPKNKTFLRCEAKNYSGRFTCWWLTTISTDLTFSVKSSRGSSDPQGVTCGAATLSAERVRGDNKEYEYSVECQEDSACPAAEESLPIEVMVDAVHKLKYENYTSSFFIRDIIKPDPPKNLQLKPLKNSRQVEVSWEYPDTWSTPHSYFSLTFCVQVQGKSKREKKDRVFTDKTSATVICRKNASISVRAQDRYYSSSWSEWASVPCSGGGGSGGGGSGGGGSGGGGSGRNLPVATPDPGMFPCLHHSQNLLRAVSNMLQKARQTLEFYPCTSEEIDHEDITKDKTSTVEACLPLELTKNESCLNSRETSFITNGSCLASRKTSFMMALCLSSIYEDLKMYQVEFKTMNAKLLMDPKRQIFLDQNMLAVIDELMQALNFNSETVPQKSSLEEPDFYKTKIKLCILLHAFRIRAVTIDRVMSYLNASDKTHTCPPCPAPEDEGGPSVFLFPPKPKDTLMISRTPEVTCVVVDVSHEDPEVKFNWYVDGVEVHNAKTKPREEQYNSTYRVVSVLTVLHQDWLNGKEYKCKVSNKALPAPIEKTISKAKGQPREPQVYVYPPSREEMTKNQVSLTCLVKGFYPSDIAVEWESNGQPENNYKTTPPVLDEDGSFALVSKLTVDKSRWQQGNVFSCSVMHEALHNHYTQKSLSLSPGK heavy (part 1 of 2): QVQLVESGGGVVQPGRSLRLDCKASGITFSNSGMHWVRQAPGKGLEWVAVIWYDGSKRYYADSVKGRFTISRDNSKNTLFLQMNSLRAEDTAVYYCATNRDYWGQGTLVTVSSAS heavy (part 2 of 2): EPKSCDKTHTCPPCPAPEKKGGPSVFLFPPKPKDTLMISRTPEVTCVVVDVSHEDPEVKFNWYVDGVEVHNAKTKPREEQYNSTYRVVSVLTVLHQDWLNGKEYKCKVSNKALPAPIEKTISKAKGQPREPQVYVLPPSREEMTKNQVSLLCLVKGFYPSDIAVEWESNGQPENRYMTWPPVLDSDGSFFLYSKLTVDKSRWQQGNVFSCSVMHEALHNHYTQKSLSLSPGK |
|  | 120 | 33 | 17 | < 0.2 | 130 | IL-12(E59A/F60A)/anti-PD-1(D100G) (antibody) light: not shown heavy: QVQLVESGGGVVQPGRSLRLDCKASGITFSNSGMHWVRQAPGKGLEWVAVIWYDGSKRYYADSVKGRFTISRDNSKNTLFLQMNSLRAEDTAVYYCATNGDYWGQGTLVTVSSASTKGPSVFPLAPSSKSTSGGTAALGCLVKDYFPEPVTVSWNSGALTSGVHTFPAVLQSSGLYSLSSVVTVPSSSLGTQTYICNVNHKPSNTKVDKKVEPKSCDKPGSGIWELKKDVYVVELDWYPDAPGEMVVLTCDTPEEDGITWTLDQSSEVLGSGKTLTIQVKAAGDAGQYTCHKGGEVLSHSLLLLHKKEDGIWSTDILKDQKEPKNKTFLRCEAKNYSGRFTCWWLTTISTDLTFSVKSSRGSSDPQGVTCGAATLSAERVRGDNKEYEYSVECQEDSACPAAEESLPIEVMVDAVHKLKYENYTSSFFIRDIIKPDPPKNLQLKPLKNSRQVEVSWEYPDTWSTPHSYFSLTFCVQVQGKSKREKKDRVFTDKTSATVICRKNASISVRAQDRYYSSSWSEWASVPCSGGGGSGGGGSGGGGSGGGGSGRNLPVATPDPGMFPCLHHSQNLLRAVSNMLQKARQTLEFYPCTSEEIDHEDITKDKTSTVEACLPLELTKNESCLNSRETSFITNGSCLASRKTSFMMALCLSSIYEDLKMYQVEFKTMNAKLLMDPKRQIFLDQNMLAVIDELMQALNFNSETVPQKSSLEEPDFYKTKIKLCILLHAFRIRAVTIDRVMSYLNASDKTHTCPPCPAPEDEGGPSVFLFPPKPKDTLMISRTPEVTCVVVDVSHEDPEVKFNWYVDGVEVHNAKTKPREEQYNSTYRVVSVLTVLHQDWLNGKEYKCKVSNKALPAPIEKTISKAKGQPREPQVYVYPPSREEMTKNQVSLTCLVKGFYPSDIAVEWESNGQPENNYKTTPPVLDEDGSFALVSKLTVDKSRWQQGNVFSCSVMHEALHNHYTQKSLSLSPGK heavy (part 1 of 2): QVQLVESGGGVVQPGRSLRLDCKASGITFSNSGMHWVRQAPGKGLEWVAVIWYDGSKRYYADSVKGRFTISRDNSKNTLFLQMNSLRAEDTAVYYCATNGDYWGQGTLVTVSSAS heavy (part 2 of 2): EPKSCDKTHTCPPCPAPEKKGGPSVFLFPPKPKDTLMISRTPEVTCVVVDVSHEDPEVKFNWYVDGVEVHNAKTKPREEQYNSTYRVVSVLTVLHQDWLNGKEYKCKVSNKALPAPIEKTISKAKGQPREPQVYVLPPSREEMTKNQVSLLCLVKGFYPSDIAVEWESNGQPENRYMTWPPVLDSDGSFFLYSKLTVDKSRWQQGNVFSCSVMHEALHNHYTQKSLSLSPGK |
|  | 34 | 5 | < 0.2 | < 0.2 | 2300 | IL-12(E59A/F60A)/anti-PD-1(N99G) (antibody) light: not shown heavy: not shown heavy (part 1 of 2): QVQLVESGGGVVQPGRSLRLDCKASGITFSNSGMHWVRQAPGKGLEWVAVIWYDGSKRYYADSVKGRFTISRDNSKNTLFLQMNSLRAEDTAVYYCATGDDYWGQGTLVTVSSAS heavy (part 2 of 2): EPKSCDKTHTCPPCPAPEKKGGPSVFLFPPKPKDTLMISRTPEVTCVVVDVSHEDPEVKFNWYVDGVEVHNAKTKPREEQYNSTYRVVSVLTVLHQDWLNGKEYKCKVSNKALPAPIEKTISKAKGQPREPQVYVLPPSREEMTKNQVSLLCLVKGFYPSDIAVEWESNGQPENRYMTWPPVLDSDGSFFLYSKLTVDKSRWQQGNVFSCSVMHEALHNHYTQKSLSLSPGK |

Reference: patent US20240392004A1 (IMMUNOWAKE, published 2024)
